Experimental data: paper PMC7714071, “Interaction of amyloid beta with humanin and acetylcholinesterase is modulated by ATP” (FEBS Open Bio, 2020)

System: Aβ in A549 cell-conditioned media
Assay: ELISA, oligomer versus total Aβ in A549 cell-conditioned media
Format: cell-based, human
Conditions: Fig. 8A
Method: Aβ ELISAs were carried out according to previous protocols for determining the oligomeric and monomeric concentrations of Aβ and as we recently reported. Briefly, total Aβ (monomers + oligomers) was measured by two‐site binding ELISAs using the capture 6E10 monoclonal antibody and 4G8‐conjugated biotin as the detection antibody, which recognizes a distinct epitope, then quantitated using streptavidin‐HRP.
Using the same samples, oligomerized Aβ was measured by a single‐site ELISA in which antibodies targeting the same primary sequence epitope were used for both capture (4G8) and detection (4G8‐biotin). Only oligomers are detected with this approach since the 4G8‐biotin antibody cannot bind to the captured monomer because the epitope is blocked by the 4G8 capture antibody. […]
Conditioned media were immunodepleted (ID) according to the methods previously described and our recently published report. […] The ID media were then carefully removed and analyzed for the presence of the target protein or peptide by ELISA. The same amount of protein (3 µL of 600 µg·mL^−1 total protein) of each sample was analyzed in the experiments. […]
Both epitopes recognized by the 6E10 and 4G8 antibodies have been previously shown to be exposed in Aβ aggregates. […] Fold change relative to controls using anti‐6E10 or anti‐4G8 antibodies incubated with 300 μL of the medium not incubated with cells was calculated. […]

B1: acetylcholinesterase (protein)
chain: EGREDAELLVTVRGGRLRGIRLKTPGGPVSAFLGIPFAEPPMGPRRFLPPEPKQPWSGVVDATTFQSVCYQYVDTLYPGFEGTEMWNPNRELSEDCLYLNVWTPYPRPTSPTPVLVWIYGGGFYSGASSLDVYDGRFLVQAERTVLVSMNYRVGAFGFLALPGSREAPGNVGLLDQRLALQWVQENVAAFGGDPTSVTLFGESAGAASVGMHLLSPPSRGLFHRAVLQSGAPNGPWATVGMGEARRRATQLAHLVGCPPGGTGGNDTELVACLRTRPAQVLVNHEWHVLPQESVFRFSFVPVVDGDFLSDTPEALINAGDFHGLQVLVGVVKDEGSYFLVYGAPGFSKDNESLISRAEFLAGVRVGVPQVSDLAAEAVVLHYTDWLHPEDPARLREALSDVVGDHNVVCPVAQLAGRLAAQGARVYAYVFEHRASTLSWPLWMGVPHGYEIEFIFGIPLDPSRNYTAEEKIFAQRLMRYWANFARTGDPNEPRDPKAPQWPPYTAGAQQYVSLDLRPLEVRRGLRAQACAFWNRFLPKLLSATDTLDEAERQWKAEFHRWSSYMVHWKNQFDHYSKQDRCSDL
oligomer, % of total Aβ remaining after AChE ID (AChE-immunodepleted A549 media (non-depleted ~ 63%)): ~ 47% | total Aβ remaining after AChE ID (AChE-immunodepleted A549 media): ~ 57%
